Target: T7 DNAP (complex of T7 gp5 and Escherichia coli thioredoxin) (bacteriophage T7 | Escherichia coli) (UniProt P00581)
Chain of UniProt P00581 (P00581 whole entry, chain 1 of 2): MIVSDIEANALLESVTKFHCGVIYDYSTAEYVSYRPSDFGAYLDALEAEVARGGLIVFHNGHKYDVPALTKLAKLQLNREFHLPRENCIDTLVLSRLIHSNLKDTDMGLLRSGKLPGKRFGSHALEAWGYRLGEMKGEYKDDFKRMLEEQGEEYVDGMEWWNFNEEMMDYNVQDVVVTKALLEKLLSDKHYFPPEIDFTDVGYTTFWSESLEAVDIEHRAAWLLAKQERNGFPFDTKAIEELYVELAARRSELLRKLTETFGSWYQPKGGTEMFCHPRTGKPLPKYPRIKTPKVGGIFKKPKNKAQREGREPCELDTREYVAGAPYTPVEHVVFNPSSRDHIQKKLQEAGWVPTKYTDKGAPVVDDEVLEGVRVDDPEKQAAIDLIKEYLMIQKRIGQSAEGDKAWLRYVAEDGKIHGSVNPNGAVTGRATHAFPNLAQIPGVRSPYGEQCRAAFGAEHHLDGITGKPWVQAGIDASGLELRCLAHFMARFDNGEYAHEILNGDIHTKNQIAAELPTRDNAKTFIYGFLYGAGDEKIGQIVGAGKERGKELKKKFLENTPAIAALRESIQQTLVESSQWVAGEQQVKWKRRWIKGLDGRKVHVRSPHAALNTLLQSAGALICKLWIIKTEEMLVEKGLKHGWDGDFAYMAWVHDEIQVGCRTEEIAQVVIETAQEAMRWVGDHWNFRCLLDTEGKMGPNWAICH
Chain of UniProt P00581 (P0AA25 whole entry, chain 2 of 2, further chain): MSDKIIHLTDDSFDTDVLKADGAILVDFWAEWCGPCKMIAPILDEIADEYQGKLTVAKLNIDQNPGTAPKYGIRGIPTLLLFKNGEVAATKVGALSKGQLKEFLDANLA

Q: How did the Pol/Exo ratio (nucleotides incorporated per nucleotide excised) during leading strand synthesis on minicircle DNA, 150 μM dVTPs and 500 μM dTTP; 50–60% lower than with the WT T7 helicase turn out when “C-tail mutant of T7 gp4A′ (T7 HelicaseΔC17) (enzyme)” was run?
A: Its Pol/Exo ratio (nucleotides incorporated per nucleotide excised) during leading strand synthesis on minicircle DNA, 150 μM dVTPs and 500 μM dTTP; 50–60% lower than with the WT T7 helicase is 5.7.

From article PMC7073461
